Kd data for 1 molecule are collected here from paper PMC3936261 (Oncogene, 2013).

Like-named read-outs stand apart in the source and are kept apart here.

One may read the Kd as the constant that tells how readily two partners part at equilibrium. Read a low Kd as higher affinity.

What all share (assay): other fluorescence titration
Test [1] has as its target T1, PTEN protein labeled with QSY 35 (UniProt P60484 1-403, QSY 35 (label as for the MKP proteins)).
For test [2], the target named is T1, PTEN protein labeled with QSY 35. The source holds these as a separate data set.
Test [3] has the same target. This is another data set of the same source.

T1 sequence (P60484 whole entry): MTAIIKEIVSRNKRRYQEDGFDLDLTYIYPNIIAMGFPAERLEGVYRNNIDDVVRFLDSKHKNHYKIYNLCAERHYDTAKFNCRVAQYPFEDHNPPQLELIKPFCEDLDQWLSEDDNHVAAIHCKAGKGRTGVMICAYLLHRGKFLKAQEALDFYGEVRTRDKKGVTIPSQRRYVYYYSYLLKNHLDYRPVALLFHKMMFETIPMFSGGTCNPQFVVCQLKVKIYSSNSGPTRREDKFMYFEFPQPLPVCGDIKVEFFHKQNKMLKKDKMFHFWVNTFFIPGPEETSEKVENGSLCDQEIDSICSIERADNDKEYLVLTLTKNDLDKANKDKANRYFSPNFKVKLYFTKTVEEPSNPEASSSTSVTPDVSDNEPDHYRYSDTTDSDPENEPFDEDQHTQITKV

B1: Prdx1 protein labeled with Alexa Fluor 546 (enzyme, UniProt Q06830 1-199, looked up)
chain: MSSGNAKIGHPAPNFKATAVMPDGQFKDISLSDYKGKYVVFFFYPLDFTFVCPTEIIAFSDRAEEFKKLNCQVIGASVDSHFCHLAWVNTPKKQGGLGPMNIPLVSDPKRTIAQDYGVLKADEGISFRGLFIIDDKGILRQITVNDLPVGRSVDETLRLVQAFQFTDKHGEVCPAGWKPGSDTIKPDVQKSKEYFSKQK
modifications: Alexa Fluor 546 on primary amines (succinimidylester of Alexa Fluor 546 carboxylic acid)
B1: the figures for the Kd in test [1], in test [2] and in test [3] were 220 ± 22.5 nM, 247 nM and 215 ± 19.5 nM, respectively.
